Test results reported in patent publication US20160136295A1, “BIOMARKERS FOR TREATMENT WITH ANTI-TUBULIN CHEMOTHERAPEUTIC COMPOUNDS” (GENENTECH, INC., priority 2012, published 2016).
One block for each molecule: values may come before it.

Tests used:
Format in all cases: biochemical, human
[1] = test system: Mcl-1 S121; experiment: In vitro kinase reactions: percent phosphorylation of full-length recombinant Mcl-1 at S121; conditions: for Percent phosphorylation S121, AVE: average of INJ1 and INJ2; for Percent phosphorylation S121, INJ1: sample injection 1; for Percent phosphorylation S121, INJ2: sample injection 2
Experimental: (§1) To determine the suitability of residues in Mcl-1 as kinase substrates, 10 μM of Mcl-1 was incubated with selected kinase at enzyme concentrations between 25 and 100 nM. For these reactions the Mcl-1 was dialyzed into 20 mM Phosphate, 50 mM Tris pH 7.5 150 mM NaCl, 5 mM DTT and 0.5% CHAPS. The protein solution was further supplemented with MgCl2 to 10 mM and ATP to 1 mM prior to addition of kinase. Purified recombinant kinases were purchased from Invitrogen Co. (Carlsbad, Calif.).
(§2) 10 μl of each of the Mcl-1 kinase reactions (100 pmol) were loaded onto a 4-12% Bis-Tris gel for separation by SDS-PAGE after reduction. Mcl-1 bands were excised from the gel, dehydrated (50% acetonitrile in 50 mM ammonium bicarbonate then 100% acetonitrile washes), and incubated with 0.2 μg trypsin overnight at 37° C.
(§3) Samples were injected in duplicate via autosampler onto a nanoAcquity® UPLC (Waters, Milford, Mass.) and analyzed on-line via nanospray ionization into an LTQ-Orbitrap® mass spectrometer at a concentration of 300 fmol synthetic peptide mix per injection. Areas were integrated for the isotopic and kinase phosphorylated peptides, and compared to their non-phosphorylated peptide counterparts to obtain percent phosphorylation values.

[2] = test system: Mcl-1 S159/T163; experiment: In vitro kinase reactions: percent phosphorylation of full-length recombinant Mcl-1 at S159+T163; conditions: for Percent phosphorylation S159/T163, AVE: average; for Percent phosphorylation S159/T163, INJ1: sample injection 1; for Percent phosphorylation S159/T163, INJ2: sample injection 2
Experimental: as §1, §2, §3

[3] = test system: Mcl-1 T163; experiment: In vitro kinase reactions: percent phosphorylation of full-length recombinant Mcl-1 at T163; conditions: single kinase reactions; for Percent phosphorylation T163, AVE: average of INJ1 and INJ2; for Percent phosphorylation T163, INJ1: sample injection 1; for Percent phosphorylation T163, INJ2: sample injection 2
Experimental: as §1, §2, §3

[4] = test system: Mcl-1 T92; experiment: In vitro kinase reactions: percent phosphorylation of full-length recombinant Mcl-1 at T92; conditions: single kinase reactions, peak areas of 0 and 1P, triple charged state; for Percent phosphorylation T92, AVE: average; for Percent phosphorylation T92, INJ1: sample injection 1; for Percent phosphorylation T92, INJ2: sample injection 2
Experimental: as §1, §2, §3

[5] = % phos on S159+T163, CDK1 + kinase panel reactions
[6] = % phos on S159+T163, single kinase reactions

Percent phosphorylation S121, AVE ([1]; CDK1 + kinase panel reactions): 20.30%
Percent phosphorylation S121, INJ1 ([1]; CDK1 + kinase panel reactions): 20.33%
Percent phosphorylation S121, INJ2 ([1]; CDK1 + kinase panel reactions): 20.26%
Percent phosphorylation S121, AVE ([1]; single kinase reactions): 8.21%
Percent phosphorylation S121, INJ1 ([1]; single kinase reactions): 10.06%
Percent phosphorylation S121, INJ2 ([1]; single kinase reactions): 6.35%
Percent phosphorylation S159/T163, AVE [2, 5]: 0.56%
Percent phosphorylation S159/T163, INJ1 [2, 5]: 0.74%
Percent phosphorylation S159/T163, INJ2 [2, 5]: 0.38%
Percent phosphorylation S159/T163, AVE [2, 6]: 4.70%
Percent phosphorylation S159/T163, INJ1 [2, 6]: 5.77%
Percent phosphorylation S159/T163, INJ2 [2, 6]: 3.62%
Percent phosphorylation T163, AVE [3]: 64.78%
Percent phosphorylation T163, INJ1 [3]: 65.53%
Percent phosphorylation T163, INJ2 [3]: 64.03%
Percent phosphorylation T92, AVE [4]: 22.75%
Percent phosphorylation T92, INJ1 [4]: 22.96%
Percent phosphorylation T92, INJ2 [4]: 22.54%
B1: MAPK13: purified recombinant kinase purchased from Invitrogen (protein, UniProt O15264 1-365, looked up)
Mitogen-activated protein …: MSLIRKKGFYKQDVNKTAWELPKTYVSPTHVGSGAYGSVCSAIDKRSGEKVAIKKLSRPFQSEIFAKRAYRELLLLKHMQHENVIGLLDVFTPASSLRNFYDFYLVMPFMQTDLQKIMGMEFSEEKIQYLVYQMLKGLKYIHSAGVVHRDLKPGNLAVNEDCELKILDFGLARHADAEMTGYVVTRWYRAPEVILSWMHYNQTVDIWSVGCIMAEMLTGKTLFKGKDYLDQLTQILKVTGVPGTEFVQKLNDKAAKSYIQSLPQTPRKDFTQLFPRASPQAADLLEKMLELDVDKRLTAAQALTHPFFEPFRDPEEETEAQQPFDDSLEHEKLTVDEWKQHIYKEIVNFSPIARKDSRRRSGMKL

Percent phosphorylation S121, AVE ([1]; CDK1 + kinase panel reactions): 10.11%
Percent phosphorylation S121, INJ1 ([1]; CDK1 + kinase panel reactions): 10.45%
Percent phosphorylation S121, INJ2 ([1]; CDK1 + kinase panel reactions): 9.76%
Percent phosphorylation S121, AVE ([1]; single kinase reactions): 5.66%
Percent phosphorylation S121, INJ1 ([1]; single kinase reactions): 5.84%
Percent phosphorylation S121, INJ2 ([1]; single kinase reactions): 5.48%
Percent phosphorylation S159/T163, AVE [2, 5]: 0.94%
Percent phosphorylation S159/T163, INJ1 [2, 5]: 1.15%
Percent phosphorylation S159/T163, INJ2 [2, 5]: 0.73%
Percent phosphorylation S159/T163, AVE [2, 6]: 2.56%
Percent phosphorylation S159/T163, INJ1 [2, 6]: 3.06%
Percent phosphorylation S159/T163, INJ2 [2, 6]: 2.06%
Percent phosphorylation T163, AVE [3]: 51.87%
Percent phosphorylation T163, INJ1 [3]: 53.70%
Percent phosphorylation T163, INJ2 [3]: 50.04%
Percent phosphorylation T92, AVE [4]: 3.27%
Percent phosphorylation T92, INJ1 [4]: 2.59%
Percent phosphorylation T92, INJ2 [4]: 3.95%
B2: MAPK11: purified recombinant kinase purchased from Invitrogen (protein, UniProt Q15759 1-364, looked up)
Mitogen-activated protein …: MSGPRAGFYRQELNKTVWEVPQRLQGLRPVGSGAYGSVCSAYDARLRQKVAVKKLSRPFQSLIHARRTYRELRLLKHLKHENVIGLLDVFTPATSIEDFSEVYLVTTLMGADLNNIVKCQALSDEHVQFLVYQLLRGLKYIHSAGIIHRDLKPSNVAVNEDCELRILDFGLARQADEEMTGYVATRWYRAPEIMLNWMHYNQTVDIWSVGCIMAELLQGKALFPGSDYIDQLKRIMEVVGTPSPEVLAKISSEHARTYIQSLPPMPQKDLSSIFRGANPLAIDLLGRMLVLDSDQRVSAAEALAHAYFSQYHDPEDEPEAEPYDESVEAKERTLEEWKELTYQEVLSFKPPEPPKPPGSLEIEQ

Percent phosphorylation S121, AVE ([1]; CDK1 + kinase panel reactions): 70.06%
Percent phosphorylation S121, INJ1 ([1]; CDK1 + kinase panel reactions): 68.97%
Percent phosphorylation S121, INJ2 ([1]; CDK1 + kinase panel reactions): 71.14%
Percent phosphorylation S121, AVE ([1]; single kinase reactions): 21.56%
Percent phosphorylation S121, INJ1 ([1]; single kinase reactions): 17.66%
Percent phosphorylation S121, INJ2 ([1]; single kinase reactions): 25.46%
Percent phosphorylation S159/T163, AVE [2, 5]: 9.45%
Percent phosphorylation S159/T163, INJ1 [2, 5]: 10.13%
Percent phosphorylation S159/T163, INJ2 [2, 5]: 8.76%
Percent phosphorylation S159/T163, AVE [2, 6]: 16.98%
Percent phosphorylation S159/T163, INJ1 [2, 6]: 15.54%
Percent phosphorylation S159/T163, INJ2 [2, 6]: 18.42%
Percent phosphorylation T163, AVE [3]: 56.77%
Percent phosphorylation T163, INJ1 [3]: 60.42%
Percent phosphorylation T163, INJ2 [3]: 53.11%
Percent phosphorylation T92, AVE [4]: 6.04%
Percent phosphorylation T92, INJ1 [4]: 5.99%
Percent phosphorylation T92, INJ2 [4]: 6.08%
B3: MAPK8: purified recombinant kinase purchased from Invitrogen (protein, UniProt P45983 1-427, looked up)
Mitogen-activated protein …: MSRSKRDNNFYSVEIGDSTFTVLKRYQNLKPIGSGAQGIVCAAYDAILERNVAIKKLSRPFQNQTHAKRAYRELVLMKCVNHKNIIGLLNVFTPQKSLEEFQDVYIVMELMDANLCQVIQMELDHERMSYLLYQMLCGIKHLHSAGIIHRDLKPSNIVVKSDCTLKILDFGLARTAGTSFMMTPYVVTRYYRAPEVILGMGYKENVDLWSVGCIMGEMVCHKILFPGRDYIDQWNKVIEQLGTPCPEFMKKLQPTVRTYVENRPKYAGYSFEKLFPDVLFPADSEHNKLKASQARDLLSKMLVIDASKRISVDEALQHPYINVWYDPSEAEAPPPKIPDKQLDEREHTIEEWKELIYKEVMDLEERTKNGVIRGQPSPLGAAVINGSQHPSSSSSVNDVSSMSTDPTLASDTDSSLEAAAGPLGCCR

Percent phosphorylation S121, AVE ([1]; CDK1 + kinase panel reactions): 18.12%
Percent phosphorylation S121, INJ1 ([1]; CDK1 + kinase panel reactions): 18.73%
Percent phosphorylation S121, INJ2 ([1]; CDK1 + kinase panel reactions): 17.51%
Percent phosphorylation S121, AVE ([1]; single kinase reactions): 11.00%
Percent phosphorylation S121, INJ1 ([1]; single kinase reactions): 10.71%
Percent phosphorylation S121, INJ2 ([1]; single kinase reactions): 11.28%
Percent phosphorylation S159/T163, AVE [2, 5]: 0.00%
Percent phosphorylation S159/T163, INJ1 [2, 5]: 0.00%
Percent phosphorylation S159/T163, INJ2 [2, 5]: 0.00%
Percent phosphorylation S159/T163, AVE [2, 6]: 0.00%
Percent phosphorylation S159/T163, INJ1 [2, 6]: 0.00%
Percent phosphorylation S159/T163, INJ2 [2, 6]: 0.00%
Percent phosphorylation T163, AVE [3]: 53.34%
Percent phosphorylation T163, INJ1 [3]: 55.05%
Percent phosphorylation T163, INJ2 [3]: 51.63%
Percent phosphorylation T92, AVE [4]: 69.58%
Percent phosphorylation T92, INJ1 [4]: 71.57%
Percent phosphorylation T92, INJ2 [4]: 67.59%
B4: MAPK12: purified recombinant kinase purchased from Invitrogen (protein, UniProt P53778 1-367, looked up)
Mitogen-activated protein …: MSSPPPARSGFYRQEVTKTAWEVRAVYRDLQPVGSGAYGAVCSAVDGRTGAKVAIKKLYRPFQSELFAKRAYRELRLLKHMRHENVIGLLDVFTPDETLDDFTDFYLVMPFMGTDLGKLMKHEKLGEDRIQFLVYQMLKGLRYIHAAGIIHRDLKPGNLAVNEDCELKILDFGLARQADSEMTGYVVTRWYRAPEVILNWMRYTQTVDIWSVGCIMAEMITGKTLFKGSDHLDQLKEIMKVTGTPPAEFVQRLQSDEAKNYMKGLPELEKKDFASILTNASPLAVNLLEKMLVLDAEQRVTAGEALAHPYFESLHDTEDEPQVQKYDDSFDDVDRTLDEWKRVTYKEVLSFKPPRQLGARVSKETPL

Percent phosphorylation S121, AVE ([1]; CDK1 + kinase panel reactions): 32.85%
Percent phosphorylation S121, INJ1 ([1]; CDK1 + kinase panel reactions): 32.82%
Percent phosphorylation S121, INJ2 ([1]; CDK1 + kinase panel reactions): 32.88%
Percent phosphorylation S121, AVE ([1]; single kinase reactions): 13.14%
Percent phosphorylation S121, INJ1 ([1]; single kinase reactions): 11.61%
Percent phosphorylation S121, INJ2 ([1]; single kinase reactions): 14.67%
Percent phosphorylation S159/T163, AVE [2, 5]: 4.10%
Percent phosphorylation S159/T163, INJ1 [2, 5]: 3.86%
Percent phosphorylation S159/T163, INJ2 [2, 5]: 4.33%
Percent phosphorylation S159/T163, AVE [2, 6]: 16.83%
Percent phosphorylation S159/T163, INJ1 [2, 6]: 16.73%
Percent phosphorylation S159/T163, INJ2 [2, 6]: 16.92%
Percent phosphorylation T163, AVE [3]: 43.90%
Percent phosphorylation T163, INJ1 [3]: 45.09%
Percent phosphorylation T163, INJ2 [3]: 42.70%
Percent phosphorylation T92, AVE [4]: 9.35%
Percent phosphorylation T92, INJ1 [4]: 10.29%
Percent phosphorylation T92, INJ2 [4]: 8.41%
B5: MAPK10: purified recombinant kinase purchased from Invitrogen (protein, UniProt P53779 1-464, looked up)
Mitogen-activated protein …: MSLHFLYYCSEPTLDVKIAFCQGFDKQVDVSYIAKHYNMSKSKVDNQFYSVEVGDSTFTVLKRYQNLKPIGSGAQGIVCAAYDAVLDRNVAIKKLSRPFQNQTHAKRAYRELVLMKCVNHKNIISLLNVFTPQKTLEEFQDVYLVMELMDANLCQVIQMELDHERMSYLLYQMLCGIKHLHSAGIIHRDLKPSNIVVKSDCTLKILDFGLARTAGTSFMMTPYVVTRYYRAPEVILGMGYKENVDIWSVGCIMGEMVRHKILFPGRDYIDQWNKVIEQLGTPCPEFMKKLQPTVRNYVENRPKYAGLTFPKLFPDSLFPADSEHNKLKASQARDLLSKMLVIDPAKRISVDDALQHPYINVWYDPAEVEAPPPQIYDKQLDEREHTIEEWKELIYKEVMNSEEKTKNGVVKGQPSPSGAAVNSSESLPPSSSVNDISSMSTDQTLASDTDSSLEASAGPLGCCR
